Measurements taken from PMC6202311.

How the values were obtained:
[1] = tested on: RNase E NTD 8x mutant (Escherichia coli); assay: BLI; settings: 5' monophosphate; 3' U-biotin ligated; BLI: 25 mM HEPES pH 7.0, 150 mM NaCl, 100 mM KCl, 10 mM CaCl2, 0.5 mM TCEP; RNA immobilised on streptavidin sensors, protein 0-500 nM; temperature not stated
[2] = tested on: RNase E NTD WT (Escherichia coli); assay: BLI; settings: 3' U-biotin ligated, BLI: 25 mM HEPES pH 7.0, 150 mM NaCl, 100 mM KCl, 10 mM CaCl2, 0.5 mM TCEP, RNA immobilised on streptavidin sensors, protein 0-500 nM, temperature not stated

Substance	Kd [1]	Kd ([2]; 5' monophosphate)	Kd ([2]; 5' triphosphate)
RprA 5'-monophosphate	47 nM	15.6 nM	
RprA 5'-triphosphate			8.6 nM
